The values below come from paper PMC13507242.

Assay [1] addresses CD33^M ectodomain (CD33 ECD), residues 21-232, glycosylated (human). Put plainly: AUC; sedimentation velocity (0.4 mg/ml, 40,000 rpm) and sedimentation equilibrium (0.2, 0.1, 0.05 mg/ml, 16,000 or 20,000 rpm), 20 °C, 20 mM HEPES, 200 mM NaCl, pH 7.5; dimer to monomers.
In assay [2] the target is CD33^M ectodomain (CD33^M ECD), residues 21-232, Endo Hf-deglycosylated (human). Put plainly: SEC-MALS; Superdex 75 10/300 GL, 20 mM HEPES, 200 mM NaCl, pH 7.5; loaded at 100 and 20 µM (<10 and 2 µM on the column); dimer to monomers. On the technique in general: Size exclusion chromatography separates by hydrodynamic size, large species first.
Assay [3] shares this target. Kind of assay: AUC; sedimentation velocity (0.4 mg/ml, 40,000 rpm) and sedimentation equilibrium (0.2, 0.1, 0.05 mg/ml, 16,000 or 20,000 rpm), 20 °C, 20 mM HEPES, 200 mM NaCl, pH 7.5; dimer to monomers.
The target of assay [4] is endogenous CD33^M of human U937 monocytic cells (human (endogenous in U937)).
endogenous CD33^M of human U937 monocytic cells (human (endogenous in U937)), sequence (P20138 18-364): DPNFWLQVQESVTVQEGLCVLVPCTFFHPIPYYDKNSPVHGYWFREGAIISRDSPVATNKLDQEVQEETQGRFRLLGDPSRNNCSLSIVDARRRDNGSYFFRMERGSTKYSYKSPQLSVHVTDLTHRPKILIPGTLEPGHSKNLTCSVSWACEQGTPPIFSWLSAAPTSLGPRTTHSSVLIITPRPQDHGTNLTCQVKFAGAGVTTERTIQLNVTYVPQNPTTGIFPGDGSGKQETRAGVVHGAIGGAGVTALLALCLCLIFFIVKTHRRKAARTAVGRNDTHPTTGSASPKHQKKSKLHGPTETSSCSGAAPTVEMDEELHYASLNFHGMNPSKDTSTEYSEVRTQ
For assay [5] the target is unchanged. Kind of assay: co-IP; U937 cells (endogenous CD33) exposed to CLU (60 nM), desCLU, rCLU or CLU + Aβ; CD33 immunoprecipitated from lysates, blot for CLU.
Assay [6] has as its target HA-tagged CD33^M (full-length major isoform) expressed in HEK293 / HEK293T cells (human). Kind of assay: co-IP; HEK293 / HEK293T cells expressing HA-tagged CD33 incubated with CLU (30 nM in the methods, 60 nM in the results), washed, lysed in 1% CHAPSO/TBS; IP with anti-HA, blot for CLU.
Assay [7] has as its target CD33^M ectodomain (CD33^M ECD), residues 21-232, Endo Hf-deglycosylated (human). Kind of assay: BLI; Octet RED384, 30 °C, 20 mM HEPES, 200 mM NaCl, 1 mg/mL casein, pH 7.5; Ni-NTA biosensors loaded with His6 deglycosylated CD33^M ECD WT or R119A; CLU 0.0025-5 µM; steady state (895-900 s), Hill equation; avidity. For orientation: BLI is a label-free optical method that tracks binding on a fibre tip over time.

Assay [8] shares this target. Kind of assay: MST; Monolith NT.115, 23 °C, deglycosylated CD33 ECD labelled with Alexa Fluor 647; 20 mM HEPES pH 7.5, 150 mM NaCl, 0.05% Tween-20.
For assay [9] the target is unchanged. Kind of assay: BLI; Octet RED384, 30 °C, 20 mM HEPES, 200 mM NaCl, 1 mg/mL casein, pH 7.5; Ni-NTA biosensors loaded with His6 deglycosylated CD33^M ECD WT or R119A; CLU 0.0025-5 µM; steady state (895-900 s), Hill equation; avidity. The source holds these as a separate data set.

HA-tagged CD33^M (full-length major isoform) expressed in HEK293 / HEK293T cells (human), sequence (P20138 18-364): as above

For the substance “CD33^M ectodomain (CD33 ECD), residues 21-232, glycosylated (domain or fragment)”, the Kd in assay [1] was determined as 300 nM.

For the substance “CD33^M ectodomain (CD33^M ECD), residues 21-232, Endo Hf-deglycosylated (domain or fragment)”, in [2], the Kd stood at 100 nM and the stoichiometry N – broadly, a count of units in the complex or per binding partner – was 2. The Kd in [3] is 710 nM.

“CLU + Aβ1-42 oligomers (CLU/Aβ 1-42 mixture) (from UniProt P10909 23-227; P10909 228-449; P05067 672-713) (complex)”: the CD33 ITIM tyrosine phosphorylation (CD33^M-pTyr) in U937 cells, relative to no treatment (relative to no treatment (1.00)) in assay [4] amounted to 11.9. Moreover, the CD33-bound CLU in the co-IP (panel e) in assay [5] turned out to be 1.06. In assay [6], this substance returned a CD33-bound CLU in the co-IP (panel d) of 1.38. Moreover, in [7], the Kd amounted to 28.2 nM.

On to “native sialylated clusterin (CLU) purified from human plasma (from UniProt P10909 23-227; P10909 228-449) (ligand)”, for which the CD33 ITIM tyrosine phosphorylation (CD33^M-pTyr) in U937 cells, relative to no treatment (relative to no treatment (1.00)) in [4] amounted to 6.28. In [8], this substance yielded a Kd of 55.1 nM. Moreover, in assay [5], the CD33-bound CLU in the co-IP (panel e) was determined as 1.04 and the ratio of CLU to CD33 band intensities is 1.23 arb. units. Besides, in [6], the CD33-bound CLU in the co-IP (panel d) is 1.15; the ratio of co-precipitated CLU to CD33 band intensities stood at 0.85 arb. units; the ratio of co-precipitated CLU to CD33 band intensities (panel c) came out at 0.425 arb. units; the ratio of co-precipitated CLU to CD33 band intensities, cells expressing CD33^M + CD33^m was 0.45 arb. units. Also, the Kd in assay [9] amounted to 28.9 nM. For the same substance, the Kd in [7] was 27.9 nM.
